Reference: PMC7505563

Biological target: T1, MatP, tag cleaved (Escherichia coli, UniProt P0A8N0 1-150)
T1 sequence: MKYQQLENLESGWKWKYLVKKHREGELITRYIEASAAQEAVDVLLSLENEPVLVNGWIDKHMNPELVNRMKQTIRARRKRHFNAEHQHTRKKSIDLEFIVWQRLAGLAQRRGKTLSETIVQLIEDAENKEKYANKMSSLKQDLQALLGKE
Assay: crystal structure

B1: matS 19mer (dsDNA)
DNA 1: TTCGTGACATTGTCACGAA
DNA 2: TTCGTGACAATGTCACGAA
B1: binds.
